The experiment addresses T1, SARS-CoV-2 WT spike (S) protein (SARS-CoV-2 prototype Wuhan-Hu-1 …, UniProt P0DTC2).
T1 construct: source: bought: Sino Biological Inc., purified
Nature of the experiment: cryo-EM structure. The conditions noted are these: both partners purified.

Here are results for two molecules from article PMC9407403 (Proceedings of the National Academy of Sciences of the …, 2022).

B1: Fab fragment of nAb X10 (Fab, V domains shown)
VH: EVQLQQSGPELVKPGASVKISCKTSGYTFTEYTLHWVKQSHGKSLEWIGGFDPNFGGATYNLKFEDKATLTVDKSSNTAYMELRSLTSEDSAVFYCARGDYGTSYAYFDFWGQGTTLTVSS
VL: DIVLTQSPASLAVSLGQRAAISCRASQSVSTSSHNYVHWYQQRPGQPPKLLIKYASNLECGVPARFSGSGSGTDFTLNIHPVEEEDSAAYYCQHSWEIPYTFGGGTKLEIK
As for B1, the binding result was “binds”.

B2: Fab fragment of nAb X01 (Fab, V domains shown)
VH: EIQLQQSGPELVAPGASVKVSCKASGYAFTSYNMYWVRQSHGKSLEWIGYIVPYNGGTTYNQEFKGKATLTVDKSSNTAYIHLNSLTSEDSAVYYCAKEGTYYGYDGVLADWGQGTLVT
VL: DIQMTQSSSYLSVSLGGRVTITCKASDHINNWLAWYQQKPGNAPRLLISGVTNLETGVPSRFSGSGSGKNFTLSIASLQTEDVATYYCQQYWSFPWTFGGGTKLEIR
On to B2, for which the binding result was “binds”.
